Article PMC6148051, “p53 cooperates with SIRT6 to regulate cardiolipin de novo biosynthesis” (Cell Death & Disease, 2018)

Target: T1, His-tagged p53 protein (UniProt P04637 1-393)
T1 construct: tumor suppressor p53, cloned into pET28b+; also called His-p53; source: bacteria (pET28b+), purified (Ni(II)-Sepharose)
Test: pull-down; GST or GST fusion proteins on glutathione-Sepharose 4B beads incubated with purified His-tagged proteins in TEN buffer (10 mM Tris-HCl, pH 8.0, 1 mM EDTA, 100 mM NaCl), 4 h, 4 °C; blot with anti-His or anti-GST, Coomassie staining
Conditions: both partners purified

T1 sequence (P04637 whole entry): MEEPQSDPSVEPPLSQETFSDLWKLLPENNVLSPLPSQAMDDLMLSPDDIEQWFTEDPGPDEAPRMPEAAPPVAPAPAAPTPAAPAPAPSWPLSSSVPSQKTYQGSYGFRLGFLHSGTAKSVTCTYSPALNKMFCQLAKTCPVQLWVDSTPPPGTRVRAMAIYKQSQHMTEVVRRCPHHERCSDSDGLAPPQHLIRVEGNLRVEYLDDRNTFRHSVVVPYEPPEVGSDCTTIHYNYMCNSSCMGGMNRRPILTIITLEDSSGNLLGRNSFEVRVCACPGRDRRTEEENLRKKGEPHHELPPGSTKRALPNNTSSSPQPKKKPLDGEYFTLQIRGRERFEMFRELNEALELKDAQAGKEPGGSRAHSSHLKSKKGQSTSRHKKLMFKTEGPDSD

binding result: binds
B1: GST-SIRT6 core domain, 35–276 aa (domain or fragment, UniProt Q8N6T7 35-276, looked up)
chain: WELARLVWQSSSVVFHTGAGISTASGIPDFRGPHGVWTMEERGLAPKFDTTFESARPTQTHMALVQLERVGLLRFLVSQNVDGLHVRSGFPRDKLAELHGNMFVEECAKCKTQYVRDTVVGTMGLKATGRLCTVAKARGLRACRGELRDTILDWEDSLPDRDLALADEASRNADLSITLGTSLQIRPSGNLPLATKRRGGRLVIVNLQPTKHDRHADLRIHGYVDEVMTRLMKHLGLEIPAW
notes: source: bacteria, purified (glutathione-Sepharose 4B)
